Data as given in patent US20120276092A1.

Molecular target: polyhistidine-tagged human FcRn (human) (UniProt P55899)
Experiment: AlphaScreen competition, pH 6.0, against biotinylated human IgG1 mAb CNTO 6234 on polyHis human FcRn

fold change of KD against CNTO 530: 2 fold
Substance: CNTO 5303 (CNTO 530 T359N/N361T) (from UniProt P01861 116-325) (Fc fusion)
